Legend:
[1] = target: human complement C5 (in human serum) (human, UniProt P01031 19-1676); assay: cell-based or functional assay
[2] = target: rat complement C5 (in rat serum) (rat, UniProt P08650 19-1681); assay: cell-based or functional assay
[3] = target: mouse complement C5 (in mouse serum) (mouse, UniProt P06684 19-1680); assay: cell-based or functional assay
complement C5 = target: T1, complement C5 (Homo sapiens (Human), UniProt P01031 19-673; P01031 678-1676, The beta and alpha chains of native C5 are linked by a disulfide bond. The native protein is glycosylated.); assay: direct binding to C5 (FIG. 4C); method not described
T1 construct: also called complement protein C5
T1 sequence (P01031 19-673 limits assumed, form in doubt, chain 1 of 2): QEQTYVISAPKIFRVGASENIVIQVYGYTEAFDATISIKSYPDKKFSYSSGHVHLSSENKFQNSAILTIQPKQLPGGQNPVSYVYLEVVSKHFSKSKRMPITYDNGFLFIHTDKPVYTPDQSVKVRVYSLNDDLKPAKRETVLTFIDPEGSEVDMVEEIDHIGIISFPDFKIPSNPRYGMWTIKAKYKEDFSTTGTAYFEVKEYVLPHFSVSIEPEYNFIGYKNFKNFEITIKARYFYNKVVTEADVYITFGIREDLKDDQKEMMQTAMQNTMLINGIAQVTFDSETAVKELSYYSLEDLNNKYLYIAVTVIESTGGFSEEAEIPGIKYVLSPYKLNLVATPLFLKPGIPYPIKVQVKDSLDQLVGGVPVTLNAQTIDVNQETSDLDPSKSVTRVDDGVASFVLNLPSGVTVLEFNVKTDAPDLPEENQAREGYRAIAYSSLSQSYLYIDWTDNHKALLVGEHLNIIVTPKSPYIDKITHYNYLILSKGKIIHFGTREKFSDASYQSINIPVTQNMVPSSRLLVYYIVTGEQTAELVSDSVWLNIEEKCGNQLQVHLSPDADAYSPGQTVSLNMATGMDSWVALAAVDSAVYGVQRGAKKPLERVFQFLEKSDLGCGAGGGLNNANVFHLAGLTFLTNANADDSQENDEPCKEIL
T1 sequence (P01031 678-1676 limits assumed, form in doubt, chain 2 of 2): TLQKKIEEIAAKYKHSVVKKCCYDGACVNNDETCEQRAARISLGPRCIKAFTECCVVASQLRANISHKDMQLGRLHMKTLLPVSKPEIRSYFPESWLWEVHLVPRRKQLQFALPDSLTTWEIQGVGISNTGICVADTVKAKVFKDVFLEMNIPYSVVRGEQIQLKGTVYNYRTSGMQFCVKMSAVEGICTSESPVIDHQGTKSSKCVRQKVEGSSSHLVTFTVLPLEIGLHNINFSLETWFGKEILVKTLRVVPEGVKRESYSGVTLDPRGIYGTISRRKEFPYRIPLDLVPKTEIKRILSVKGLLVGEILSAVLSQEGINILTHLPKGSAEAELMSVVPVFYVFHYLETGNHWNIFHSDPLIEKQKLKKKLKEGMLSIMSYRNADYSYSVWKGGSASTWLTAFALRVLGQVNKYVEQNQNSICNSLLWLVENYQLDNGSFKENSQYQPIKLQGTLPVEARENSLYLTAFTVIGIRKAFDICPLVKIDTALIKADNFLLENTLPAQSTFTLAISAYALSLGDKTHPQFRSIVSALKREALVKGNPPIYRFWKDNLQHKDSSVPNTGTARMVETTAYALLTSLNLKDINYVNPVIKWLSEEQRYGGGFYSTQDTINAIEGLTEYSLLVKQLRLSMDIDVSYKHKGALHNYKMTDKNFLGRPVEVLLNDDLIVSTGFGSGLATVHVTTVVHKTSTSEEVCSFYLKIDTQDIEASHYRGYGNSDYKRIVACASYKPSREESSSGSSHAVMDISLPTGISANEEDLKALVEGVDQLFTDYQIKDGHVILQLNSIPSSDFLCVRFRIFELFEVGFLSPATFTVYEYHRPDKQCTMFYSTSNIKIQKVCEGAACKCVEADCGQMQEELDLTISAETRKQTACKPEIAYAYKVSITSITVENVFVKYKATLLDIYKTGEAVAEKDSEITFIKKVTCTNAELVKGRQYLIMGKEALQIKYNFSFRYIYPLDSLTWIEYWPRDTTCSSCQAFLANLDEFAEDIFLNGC

Chain of human complement C5 (in human serum) (P01031 19-1676 limits assumed): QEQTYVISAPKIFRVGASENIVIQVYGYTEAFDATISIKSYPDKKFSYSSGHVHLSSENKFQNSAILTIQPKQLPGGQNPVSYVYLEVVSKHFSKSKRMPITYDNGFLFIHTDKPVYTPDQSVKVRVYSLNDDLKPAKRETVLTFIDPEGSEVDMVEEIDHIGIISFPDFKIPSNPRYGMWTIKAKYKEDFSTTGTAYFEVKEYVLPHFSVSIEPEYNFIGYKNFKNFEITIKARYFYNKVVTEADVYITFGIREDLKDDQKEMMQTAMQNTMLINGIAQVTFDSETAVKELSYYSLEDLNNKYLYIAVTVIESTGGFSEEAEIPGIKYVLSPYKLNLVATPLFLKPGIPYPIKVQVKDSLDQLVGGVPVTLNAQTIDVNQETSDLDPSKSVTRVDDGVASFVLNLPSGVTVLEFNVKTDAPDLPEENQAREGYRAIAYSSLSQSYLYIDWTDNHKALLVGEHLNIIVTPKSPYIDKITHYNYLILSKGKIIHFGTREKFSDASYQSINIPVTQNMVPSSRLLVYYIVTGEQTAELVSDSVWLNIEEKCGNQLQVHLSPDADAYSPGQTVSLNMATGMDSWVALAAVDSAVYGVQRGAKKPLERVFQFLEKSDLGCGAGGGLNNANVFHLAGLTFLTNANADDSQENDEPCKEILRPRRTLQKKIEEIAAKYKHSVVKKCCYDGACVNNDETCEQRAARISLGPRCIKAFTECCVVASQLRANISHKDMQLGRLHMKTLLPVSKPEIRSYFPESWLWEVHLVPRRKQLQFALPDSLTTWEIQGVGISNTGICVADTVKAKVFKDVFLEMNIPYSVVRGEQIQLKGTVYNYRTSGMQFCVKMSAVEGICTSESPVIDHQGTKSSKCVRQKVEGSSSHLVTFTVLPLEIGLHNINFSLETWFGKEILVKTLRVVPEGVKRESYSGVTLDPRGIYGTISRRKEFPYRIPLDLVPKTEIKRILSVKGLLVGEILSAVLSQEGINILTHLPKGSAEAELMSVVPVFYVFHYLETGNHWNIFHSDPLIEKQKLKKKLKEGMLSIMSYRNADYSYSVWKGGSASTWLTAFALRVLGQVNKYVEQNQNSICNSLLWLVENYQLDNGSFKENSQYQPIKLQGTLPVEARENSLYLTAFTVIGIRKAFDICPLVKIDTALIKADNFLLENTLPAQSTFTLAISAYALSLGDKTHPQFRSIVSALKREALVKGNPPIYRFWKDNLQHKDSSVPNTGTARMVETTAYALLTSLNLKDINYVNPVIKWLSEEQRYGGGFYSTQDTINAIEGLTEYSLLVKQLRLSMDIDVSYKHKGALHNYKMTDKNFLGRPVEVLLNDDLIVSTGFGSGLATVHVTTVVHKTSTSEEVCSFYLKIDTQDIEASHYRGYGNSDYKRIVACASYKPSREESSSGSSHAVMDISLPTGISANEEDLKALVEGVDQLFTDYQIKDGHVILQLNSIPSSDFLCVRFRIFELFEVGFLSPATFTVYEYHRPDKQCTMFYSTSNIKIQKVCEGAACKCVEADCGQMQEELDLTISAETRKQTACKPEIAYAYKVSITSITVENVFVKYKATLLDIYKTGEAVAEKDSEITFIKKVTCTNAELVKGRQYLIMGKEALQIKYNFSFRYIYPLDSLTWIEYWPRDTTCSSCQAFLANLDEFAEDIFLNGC
Chain of mouse complement C5 (in mouse serum) (P06684 19-1680 limits assumed): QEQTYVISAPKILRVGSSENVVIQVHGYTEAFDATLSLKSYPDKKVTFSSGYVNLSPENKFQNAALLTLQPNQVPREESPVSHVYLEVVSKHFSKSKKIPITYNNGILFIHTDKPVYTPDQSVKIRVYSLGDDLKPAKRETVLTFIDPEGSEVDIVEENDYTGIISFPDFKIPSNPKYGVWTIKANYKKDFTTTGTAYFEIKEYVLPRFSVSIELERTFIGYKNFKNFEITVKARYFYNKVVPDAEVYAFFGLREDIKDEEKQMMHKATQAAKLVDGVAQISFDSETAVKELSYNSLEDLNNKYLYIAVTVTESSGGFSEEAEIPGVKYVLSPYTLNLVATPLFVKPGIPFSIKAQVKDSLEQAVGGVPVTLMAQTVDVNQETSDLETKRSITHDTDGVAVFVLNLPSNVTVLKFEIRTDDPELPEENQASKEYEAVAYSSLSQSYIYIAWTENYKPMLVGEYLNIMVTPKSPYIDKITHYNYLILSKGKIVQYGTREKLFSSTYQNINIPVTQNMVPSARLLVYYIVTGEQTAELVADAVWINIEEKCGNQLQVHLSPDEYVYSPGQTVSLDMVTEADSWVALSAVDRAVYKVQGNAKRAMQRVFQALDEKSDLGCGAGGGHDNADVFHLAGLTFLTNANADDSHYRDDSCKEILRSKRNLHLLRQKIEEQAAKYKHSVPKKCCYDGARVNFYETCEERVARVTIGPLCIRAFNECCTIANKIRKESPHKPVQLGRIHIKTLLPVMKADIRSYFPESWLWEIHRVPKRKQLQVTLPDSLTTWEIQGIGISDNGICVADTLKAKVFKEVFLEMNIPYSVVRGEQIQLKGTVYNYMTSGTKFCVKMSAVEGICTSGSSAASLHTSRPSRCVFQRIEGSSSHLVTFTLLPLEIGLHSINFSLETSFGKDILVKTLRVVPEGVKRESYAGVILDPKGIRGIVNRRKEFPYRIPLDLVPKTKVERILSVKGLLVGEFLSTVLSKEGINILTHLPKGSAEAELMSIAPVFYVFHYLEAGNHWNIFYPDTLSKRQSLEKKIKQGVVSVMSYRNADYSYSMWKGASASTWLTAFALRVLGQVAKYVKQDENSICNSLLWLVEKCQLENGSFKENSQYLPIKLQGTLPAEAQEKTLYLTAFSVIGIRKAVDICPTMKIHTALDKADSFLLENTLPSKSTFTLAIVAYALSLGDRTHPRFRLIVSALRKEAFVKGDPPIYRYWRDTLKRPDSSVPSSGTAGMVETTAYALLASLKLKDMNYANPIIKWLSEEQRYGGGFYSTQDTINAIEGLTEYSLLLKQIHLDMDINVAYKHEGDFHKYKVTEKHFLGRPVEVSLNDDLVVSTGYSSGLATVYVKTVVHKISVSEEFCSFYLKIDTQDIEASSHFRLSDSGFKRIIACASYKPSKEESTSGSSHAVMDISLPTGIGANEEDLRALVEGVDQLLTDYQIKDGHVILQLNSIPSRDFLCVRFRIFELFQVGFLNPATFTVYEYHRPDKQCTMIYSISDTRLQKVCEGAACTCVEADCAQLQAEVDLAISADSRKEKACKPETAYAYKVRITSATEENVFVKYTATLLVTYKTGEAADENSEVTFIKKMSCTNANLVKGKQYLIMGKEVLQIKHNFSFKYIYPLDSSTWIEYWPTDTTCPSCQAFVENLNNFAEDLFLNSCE

B1: EV576 protein, native, purified from salivary gland extracts of the soft tick Ornithodoros moubata (other)
chain: DSESDCTGSEPVDAFQAFSEGKEAYVLVRSTDPKARDCLKGEPAGEKQDNTLPVMMTFKNGTDWASTDWTFTLDGAKVTATLGNLTQNREVVYDSQSHHCHVDKVEKEVPDYEMWMLDAGGLEVEVECCRQKLEELASGRNQMYPHLKDC
~20 µg/mL: IC50, binding of C5 and prevention of its cleavage by C5 convertase in serum [1] | IC50, binding of C5 and prevention of its cleavage by C5 convertase in serum [2] | IC50, binding of C5 and prevention of its cleavage by C5 convertase in serum [3] | IC50 (complement C5)

From patent US9211312 (VOLUTION IMMUNO PHARMACEUTICALS, dated 2015)
